Data: publication PMC10425842

Columns and labels:
[1] = target: UBR5^ΔSBB2 (UBR5 mutant with an SBB2 domain deletion) (human) (UniProt O95071); assay: cryo-EM 2D classification
[2] = target: UBR5^ΔSBB2 (UBR5 mutant with an SBB2 domain deletion) (human) (UniProt O95071); assay: mass photometry

**Q.** Which stoichiometry N [1] does the source give for “UBR5^ΔSBB2 (UBR5 mutant with an SBB2 domain deletion) (from UniProt O95071 1-2799) (enzyme)” here?
**A.** 2

**Q.** And the stoichiometry N [2]?
**A.** 2
